{"source": "patent US20120034254A1", "assay_in_all_cases": "SPR", "key": {"[1]": {"target": "CD4 (UniProt P01730)"}, "[2]": {"target": "Full length Hxbc2 gp120"}, "[3]": {"target": "WT Hxbc2 core"}}, "data": [{"substance": "Full length Hxbc2 gp120", "values": [{"measurement": "Kd", "setting": "[1]", "result": 6.29, "unit": "nM"}]}, {"substance": "WT Hxbc2 core", "values": [{"measurement": "Kd", "setting": "[1]", "result": 15.1, "unit": "nM"}]}, {"substance": "b12", "values": [{"measurement": "Kd", "setting": "[2]", "result": 2.63, "unit": "nM"}, {"measurement": "Kd", "setting": "[3]", "result": 2.67, "unit": "nM"}]}]}
